Test results from US20110217237A1 (AbbVie / Abbott, published 2011).
Where two headings read alike, the source gives them in different places.

What was measured:
[1] = target: T1, mouse DLL4 extracellular domain (mouse, UniProt Q9JI71 27-532); assay: SPR (Biacore)
T1 construct: extracellular domain; also called muDLL4 ECD; murine DLL4
Procedure: (§1) The BIACORE® surface plasmon resonance assay (Biacore, Inc., Piscataway, N.J., US) determines the affinity of antibodies with kinetic measurements of on-rate and off-rate constants. Binding of DLL4 antibodies to a purified recombinant DLL4 extracellular domain (ECD) was determined by surface plasmon resonance-based measurements with a Biacore® instrument (either a Biacore 2000, Biacore 3000, or Biacore T100; GE Healthcare, Piscataway, N.J., US) using running buffer HBS-EPB (10 mM HEPES [pH 7.4], 150 mM NaCl, 3 mM EDTA, 0.1 mg/ml BSA and 0.005% surfactant P20) at 25° C. For example, approximately 9000 RU of goat anti-human Fc specific polyclonal antibody (Thermo Fisher Scientific Inc., Rockford, Ill., US) diluted in 10 mM sodium acetate (pH 4.5) is directly immobilized across a CMS research grade biosensor chip using a standard amine coupling kit according to manufacturer's instructions and procedures at 25 μg/ml. Unreacted moieties on the biosensor surface were blocked with ethanolamine. For kinetic analysis, rate equations derived from the 1:1 Langmuir binding model were fitted simultaneously to multiple antigen injections (using global fit analysis) with the use of Scrubber 2 (BioLogic Software), Biacore Biaevaluation 4.0.1 software or Biacore T100 Evaluation software. Purified antibodies were diluted in running buffer for capture across goat anti-human Fc reaction surfaces. Antibodies to be captured as a ligand (1 μg/ml) were injected over reaction matrices at a flow rate of 10 μl/min. During the assay, all measurements were referenced against the capture surface alone (i.e., with no captured anti-DLL4 antibody). […] The equilibrium dissociation constant KD (M) of the reaction between antibodies and the target antigen was then calculated from the kinetic rate constants by the following formula: KD=Koff/Kₒₙ. Binding was recorded as a function of time and kinetic rate constants were calculated.

[2] = target: T2, human DLL4 extracellular domain (human, UniProt Q9NR61 27-529); assay: SPR (Biacore)
T2 construct: purified recombinant ECD; biotin-labelled or 6xHis-tagged depending on the assay; also called huDLL4 ECD; hu DLL4 ECD
T2 sequence (Q9NR61 27-529 limits assumed): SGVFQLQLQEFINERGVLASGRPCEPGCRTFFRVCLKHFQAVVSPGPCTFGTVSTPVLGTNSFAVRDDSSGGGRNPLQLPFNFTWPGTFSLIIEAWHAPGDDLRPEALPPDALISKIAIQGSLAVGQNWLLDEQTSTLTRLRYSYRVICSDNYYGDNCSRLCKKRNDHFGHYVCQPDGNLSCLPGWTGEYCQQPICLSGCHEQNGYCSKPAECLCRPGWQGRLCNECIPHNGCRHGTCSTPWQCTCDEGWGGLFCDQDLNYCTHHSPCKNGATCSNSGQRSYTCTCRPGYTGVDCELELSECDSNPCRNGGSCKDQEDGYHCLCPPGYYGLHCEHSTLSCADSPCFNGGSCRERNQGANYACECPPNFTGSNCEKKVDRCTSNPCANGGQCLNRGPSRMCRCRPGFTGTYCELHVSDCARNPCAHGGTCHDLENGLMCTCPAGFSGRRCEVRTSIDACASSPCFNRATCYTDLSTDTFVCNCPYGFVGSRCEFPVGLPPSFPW
Procedure: as §1

[3] = target: T3, mouse DLL4 on cells (mouse, UniProt Q9JI71 27-686); assay: FACS, DLL4 cells
T3 construct: whole, on cells; also called mouse DLL4-293G; mu DLL4 cells
T3 sequence (Q9JI71 27-686): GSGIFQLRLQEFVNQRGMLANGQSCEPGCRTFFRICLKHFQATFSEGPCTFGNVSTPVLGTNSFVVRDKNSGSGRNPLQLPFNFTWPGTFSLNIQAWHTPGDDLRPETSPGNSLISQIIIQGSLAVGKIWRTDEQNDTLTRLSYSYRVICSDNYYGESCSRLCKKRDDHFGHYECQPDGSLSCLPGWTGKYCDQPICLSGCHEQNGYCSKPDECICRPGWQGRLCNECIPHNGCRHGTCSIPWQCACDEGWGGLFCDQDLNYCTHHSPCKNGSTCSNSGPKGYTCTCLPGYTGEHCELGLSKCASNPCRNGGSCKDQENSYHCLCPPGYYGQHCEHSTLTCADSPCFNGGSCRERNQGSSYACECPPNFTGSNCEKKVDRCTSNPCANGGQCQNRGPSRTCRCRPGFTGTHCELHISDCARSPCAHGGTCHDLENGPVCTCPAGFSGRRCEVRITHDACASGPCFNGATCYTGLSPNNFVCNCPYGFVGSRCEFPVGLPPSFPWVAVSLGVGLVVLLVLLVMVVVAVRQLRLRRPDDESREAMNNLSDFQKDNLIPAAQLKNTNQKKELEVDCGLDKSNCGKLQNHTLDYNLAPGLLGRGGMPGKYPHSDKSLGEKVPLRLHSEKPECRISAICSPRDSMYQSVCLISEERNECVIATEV

[4] = target: T4, human DLL4, full length, on cells (human, UniProt Q9NR61 27-685); assay: FACS, DLL4 cells
T4 construct: also called huDLL4 cells; human DLL4-293G
T4 sequence (Q9NR61 27-685 limits assumed): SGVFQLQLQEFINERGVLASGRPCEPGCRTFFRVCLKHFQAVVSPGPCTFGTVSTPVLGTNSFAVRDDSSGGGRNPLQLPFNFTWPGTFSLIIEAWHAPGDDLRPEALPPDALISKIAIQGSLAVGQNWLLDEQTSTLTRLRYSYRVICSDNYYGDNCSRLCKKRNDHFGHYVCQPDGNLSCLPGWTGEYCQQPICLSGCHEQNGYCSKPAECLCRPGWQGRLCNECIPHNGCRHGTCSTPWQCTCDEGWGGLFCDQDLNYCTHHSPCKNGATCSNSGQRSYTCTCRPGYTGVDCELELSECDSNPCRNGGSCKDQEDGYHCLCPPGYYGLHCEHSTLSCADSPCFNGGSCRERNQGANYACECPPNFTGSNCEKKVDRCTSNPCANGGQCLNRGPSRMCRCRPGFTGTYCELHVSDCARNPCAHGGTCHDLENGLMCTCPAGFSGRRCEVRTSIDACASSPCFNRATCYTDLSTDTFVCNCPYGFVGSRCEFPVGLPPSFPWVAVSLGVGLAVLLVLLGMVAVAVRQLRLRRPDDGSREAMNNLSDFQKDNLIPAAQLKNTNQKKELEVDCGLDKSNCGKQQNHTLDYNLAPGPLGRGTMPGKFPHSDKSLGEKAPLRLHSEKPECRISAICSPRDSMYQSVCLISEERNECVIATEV

[5] = target: T1, mouse DLL4 extracellular domain; assay: competition ELISA vs Notch-1
Procedure: (§2) Plates were then washed 3 times with wash buffer (PBS, 0.05% Tween-20) and blocked with 200 μl/well blocking buffer (D-PBS, 1% BSA, 1 mM CaCl₂, 0.05% Tween-20) for 1 hour at 25° C. While blocking, biotin labeled DLL4 extracellular domain (14 nM) was mixed with antibody (30 pM-66 nM, 3-fold serial dilution in blocking buffer) for 1 hour at 25° C. with shaking. Assay plates were washed after blocking, and incubated with DLL4/antibody mixtures (100 μl/well, 1 hour at 25° C. with shaking). Plates were washed again and 100 μl/well streptavidin conjugated with HRP (Fitzgerald #65R-S104PHRPx, diluted 1:5,000 in blocking buffer) was added for 1 hour at 25° C. with shaking. After a final wash, plates were developed using 100 μl/well substrate (TMB Sigma #T8665), and the reaction was stopped using 100 μl/well 1N HCl, and the absorbance was read at 450 nm. Data were analyzed using Graphpad Prism software and IC₅₀ values were reported as the concentration of antibody to achieve 50% reduction of DLL4 bound to Notch1.
(§3) Purified variants were further characterized for their affinities for human, murine and cynomolgus DLL4 by binding ELISA (Example 1.2, Method 2), by Biacore (Example 1.1), and by Flow Cytometry (FACS). […] The humanized variants were then tested for their functionality with human and murine DLL4 by competition ELISA (Example 1.3) and by Notch reporter assay (Example 1.6).

[6] = target: T2, human DLL4 extracellular domain; assay: competition ELISA vs Notch-1
Procedure: as §2, §3

[7] = target: T1, mouse DLL4 extracellular domain; assay: binding ELISA
Procedure: (§4) Plates were then washed 3 times. 100 μl/well of recombinant rat/human chimeric or recombinant human anti-DLL4 antibodies were then added to the plate (0.00164-27 nM, 4-fold serial dilution in ELISA buffer=PBST, 10% Superblock (Pierce #37515)) for 1 hour at 25° C. with shaking and then washed again 3 times. Plates were incubated with goat anti-human HRP (Pierce #31412) (1:40,000 dilution in ELISA buffer, 100 μl/well) for 1 hour at 25° C. with shaking, then washed 3 times. After the final wash, plates were incubated with 100 μl/well ELISA substrate (Sigma #T8665). The reaction was stopped after 8 minutes at 25° C. with 100 μl/well 1N HCl and the absorbance was read at 450 nm. Data were analyzed using Graphpad Prism software, and EC50 values were reported.
as §3

[8] = target: T5, cynomolgus monkey DLL4 extracellular domain (cynomolgus monkey); assay: binding ELISA
T5 construct: extracellular domain; also called cynoDLL4 ECD; Cyno DLL4
Procedure: as §4, §3

[9] = target: T2, human DLL4 extracellular domain; assay: binding ELISA
Procedure: as §4, §3

[10] = target: T4, human DLL4, full length, on cells; assay: cell-based or functional assay
[11] = target: T5, cynomolgus monkey DLL4 extracellular …; assay: SPR (Biacore)
Procedure: as §1

[12] = target: T2, human DLL4 extracellular domain; assay: SPR (Biacore); remark: listed apart in the source
Procedure: as §1

[13] = target: T1, mouse DLL4 extracellular domain; assay: SPR (Biacore); remark: listed apart in the source
Procedure: as §1

[14] = target: T6, rat DLL4 extracellular domain (rat, UniProt D3ZHH1 28-530); assay: SPR (Biacore)
T6 construct: extracellular domain; also called ratDLL4 ECD
T6 sequence (D3ZHH1 28-530): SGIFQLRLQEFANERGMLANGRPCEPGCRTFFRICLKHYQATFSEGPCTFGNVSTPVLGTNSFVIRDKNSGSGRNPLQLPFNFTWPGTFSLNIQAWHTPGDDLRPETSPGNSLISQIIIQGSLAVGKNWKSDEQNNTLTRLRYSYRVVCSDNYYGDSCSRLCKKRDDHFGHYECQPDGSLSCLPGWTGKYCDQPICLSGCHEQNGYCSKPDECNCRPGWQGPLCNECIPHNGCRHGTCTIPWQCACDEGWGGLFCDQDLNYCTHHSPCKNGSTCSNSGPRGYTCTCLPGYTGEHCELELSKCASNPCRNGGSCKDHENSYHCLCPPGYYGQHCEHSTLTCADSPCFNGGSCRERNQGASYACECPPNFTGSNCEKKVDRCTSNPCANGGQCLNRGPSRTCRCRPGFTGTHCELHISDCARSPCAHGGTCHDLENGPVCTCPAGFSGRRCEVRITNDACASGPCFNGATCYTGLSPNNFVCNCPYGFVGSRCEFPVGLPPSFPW
Procedure: as §1

[15] = target: T3, mouse DLL4 on cells; assay: cell-based or functional assay
[16] = target: T4, human DLL4, full length, on cells; assay: cell-based or functional assay; remark: listed apart in the source
[17] = target: T3, mouse DLL4 on cells; assay: FACS, direct binding to DLL4 cells
Procedure: (§5) Stable cell lines overexpressing cell-surface DLL4 were harvested from tissue culture flasks, washed four times and resuspended in phosphate buffered saline (PBS) containing 1% bovine serum albumin and 1 mM CaCl₂ (FACS buffer). 1.5×10⁵ cells were incubated with antibodies at various concentrations in FACS buffer for 60 minutes on ice. […] Following an incubation on ice (4° C., 60 minutes), cells were washed three times and resuspended in FACS buffer. Fluorescence was measured using a Becton Dickinson FACSCalibur-HTS (Becton Dickinson, San Jose, Calif., US). Data were analyzed using Graphpad Prism software and EC₅₀ values were reported as the concentration of antibody to achieve 50% of maximal DLL4 antibodies binding to DLL4 expressing cells.
(§6) The hu1A11.1 affinity matured clones (Table 22) were expressed, purified, and further characterized in vitro. Their activities of binding to cell-bound DLL4 and inhibiting cell-bound DLL4-induced Notch activation were further examined using methods described in Examples 1.3 and 1.6, and are summarized in Table 26 (below).

[18] = target: T4, human DLL4, full length, on cells; assay: FACS, direct binding to DLL4 cells
Procedure: as §5, §6

T1 sequence (Q9JI71 27-532): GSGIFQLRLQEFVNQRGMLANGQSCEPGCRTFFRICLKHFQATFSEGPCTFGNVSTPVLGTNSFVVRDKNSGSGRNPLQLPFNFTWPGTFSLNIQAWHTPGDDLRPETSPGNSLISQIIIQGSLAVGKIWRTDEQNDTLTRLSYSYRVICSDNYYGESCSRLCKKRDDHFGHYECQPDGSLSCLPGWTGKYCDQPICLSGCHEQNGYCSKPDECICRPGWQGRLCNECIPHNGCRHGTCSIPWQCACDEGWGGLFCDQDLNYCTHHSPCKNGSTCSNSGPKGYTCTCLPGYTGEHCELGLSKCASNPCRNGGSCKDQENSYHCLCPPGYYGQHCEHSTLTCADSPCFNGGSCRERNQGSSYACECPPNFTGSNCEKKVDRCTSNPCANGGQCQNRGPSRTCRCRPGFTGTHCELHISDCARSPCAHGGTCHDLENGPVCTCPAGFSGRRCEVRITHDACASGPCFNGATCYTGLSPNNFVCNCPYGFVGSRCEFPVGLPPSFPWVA

| Binder | Kd [1] [nM] | Kd [2] [nM] | EC50 [3] [nM] | EC50 [4] [nM] | IC50 [5] [nM] | IC50 [6] [nM] | EC50 [7] [nM] | EC50 [8] [nM] | EC50 [9] [nM] | Reporter Assay (EC50, nM) [10] [nM] | further results |
| --- | --- | --- | --- | --- | --- | --- | --- | --- | --- | --- | --- |
| h1A11.2 (antibody, V domains shown, humanized IgG; also called VH.1/VL.1a 1A11) VH: EVQLVESGGGLVQPGGSLRLSCAASGFTFSNFPMAWVRQAPGKGLEWVATISSSDGTTYYRDSVKGRFTISRDNAKNSLYLQMNSLRAEDTAVYYCARGYYNSPFAYWGQGTLVTVSS VL: DIQMTQSPSSLSASVGDRVTITCRASEDIYSNLAWYQQKPGKSPKLLIFDTNNLADGVPSRFSGSGSGTDSTLTISSLQPEDFATYFCQQYNNYPPTFGQGTKLEIKR | 19 | 10 | 0.21 | 2.85 | 0.9 | 0.3 | 0.09 | 0.13 | 0.08 | 3.92 | – |
| h1A11.5 (antibody, V domains shown, humanized IgG; also called VH.1a/VL.1 1A11) VH: EVQLVESGGGLVQPGGSLRLSCAASGFTFSNFPMAWVRQAPGKGLEWVATISSSDGTTYYRDSVKGRFTISRDNAKSSLYLQMNSLRAEDTAVYYCSRGYYNSPFAYWGQGTLVTVSS VL: DIQMTQSPSSLSASVGDRVTITCRASEDIYSNLAWYQQKPGKAPKLLIYDTNNLADGVPSRFSGSGSGTDFTLTISSLQPEDFATYYCQQYNNYPPTFGQGTKLEIKR | 22 | 9.6 | 0.21 | 3.61 | 0.8 | 0.3 | 0.08 | 0.16 | 0.07 | 3.8 | – |
| h1A11.6 (antibody, V domains shown, humanized IgG; also called VH.1a/VL.1a 1A11) VH: EVQLVESGGGLVQPGGSLRLSCAASGFTFSNFPMAWVRQAPGKGLEWVATISSSDGTTYYRDSVKGRFTISRDNAKSSLYLQMNSLRAEDTAVYYCSRGYYNSPFAYWGQGTLVTVSS VL: DIQMTQSPSSLSASVGDRVTITCRASEDIYSNLAWYQQKPGKSPKLLIFDTNNLADGVPSRFSGSGSGTDSTLTISSLQPEDFATYFCQQYNNYPPTFGQGTKLEIKR | 31 | 11.3 | 0.15 | 3.74 | 0.8 | 0.4 | 0.1 | 0.13 | 0.08 | 1.45 | – |
| h1A11.7 (antibody, V domains shown, humanized IgG; also called VH.1a/VL.1b 1A11) VH: EVQLVESGGGLVQPGGSLRLSCAASGFTFSNFPMAWVRQAPGKGLEWVATISSSDGTTYYRDSVKGRFTISRDNAKSSLYLQMNSLRAEDTAVYYCSRGYYNSPFAYWGQGTLVTVSS VL: DIQMTQSPSSLSASVGDRVTITCRASEDIYSNLAWYQQKPGKAPKLLIFDTNNLADGVPSRFSGSGSGTDFTLTISSLQPEDFATYYCQQYNNYPPTFGQGTKLEIKR | 35 | 13 | 0.18 | 3.71 | 0.9 | 0.5 | 0.09 | 0.14 | 0.06 | 4.84 | – |
| h1A11.9 (antibody, V domains shown, humanized IgG; also called VH.1b/VL.1 1A11) VH: EVQLVESGGGLVQPGGSLRLSCAASGFTFSNFPMAWVRQAPGKGLEWVATISSSDGTTYYRDSVKGRFTISRDNAKNSLYLQMNSLRAEDTAVYYCSRGYYNSPFAYWGQGTLVTVSS VL: DIQMTQSPSSLSASVGDRVTITCRASEDIYSNLAWYQQKPGKAPKLLIYDTNNLADGVPSRFSGSGSGTDFTLTISSLQPEDFATYYCQQYNNYPPTFGQGTKLEIKR | 34 | 13 | 0.18 | 3.28 | 0.9 | 0.3 | 0.09 | 0.15 | 0.07 | 3.18 | – |
| h1A11.H2 (antibody, V domains shown, also called h1A11.H2 VH / h1A11.E12 VL) VH: EVQLVESGGGLVQPGGSLRLSCAASGFTFGNFPMSWVRQAPGKGLEWVASISSSDSWATIGDSVKGRFTISRDNAKNSLYLQMNSLRAEDTAVYYCARGYYNSPFAFWGQGTLVTVSS VL: DIQMTQSPSSLSASVGDRVTITCRASQEIYRNLAWYQQKPGKSPKLLIFDTSVLADGVPSRFSGSGSGTDSTLTISSLQPEDFATYYCQQYTYYPPTFGQGTKLEIK | – | – | – | – | – | – | – | – | – | – | Kd [11]: 0.35 nM; koff [11]: 4.6e-05 s⁻¹; kon [11]: 131000 M⁻¹ s⁻¹; Kd [12]: 0.27 nM; koff [12]: 3.85e-05 s⁻¹; kon [12]: 143000 M⁻¹ s⁻¹; Kd [13]: 0.33 nM; koff [13]: 5.07e-05 s⁻¹; kon [13]: 154000 M⁻¹ s⁻¹; Kd [14]: 16 nM; koff [14]: 0.00283 s⁻¹; kon [14]: 178000 M⁻¹ s⁻¹; Inhibition of Notch Activation via DLL4 cells, Notch reporter assay [15]: 0.586 nM; Inhibition of Notch Activation via DLL4 cells, Notch reporter assay [16]: 0.856 nM; EC50 [17]: 0.42 nM; EC50 [18]: 1.98 nM |
